Reference: the DeepSol protein solubility set

Assay: soluble on expression in E. coli; label from the status in PepcDB or PDB records

| Sequence | soluble on expression in E. coli |
| --- | --- |
| MFQKLLAFLTVVVFVSAAGNSCKIGKVINKPVIDGTPVYWPASWNETQPAPQLEKEQSCSWYVTIPRGYYAKLIISGKTTDKDSRFQTVDSAGNLIQTTHEKMVPYYFPASKFTLAVSNEGSATFAFKVVWWPLPTEKYVDIVASIGQVINVTETVVAMEYAAPGGITLLTFPEDLKNYNSLRSTLIYDGSSLTSATYVSNLFLLNQSKKQWTSSQDGIVVVNVEASRSMNKLLIQGSVYLAGIDEIVELHPQPNSIYNGTVNAGAHMSSLVAVSDLELQMIDVQMKDDSTVSVYYGSPDAFTLDKTYTGAELKKALPLPFGGYFVQFVVSSGKAVFTFKS | not soluble |
| STTEVVMENVTAFWEEGFGELFEKAKQNNNNRKTSNGDDSLSFSNFSLLGTPVLKDINFKIERGQLLAVAGSTGAGKTSLLMMIMGELEPSEGKIKHSGRISFCSQNSWIMPGTIKENIIFGVSYDEYRYRSVIKACQLEEDISKFAEKDNIVLGEGGITLSGGQRARISLARAVYKDADLYLLDSPFGYLDVLTEKEIFESCVCKLMANKTRILVTSKMEHLKKADKILILHEGSSYFYGTFSELQNERPDFSSKLMGCDSFDQFSAERRNSILTETLHRFSLEGDAPVSENLYFQGDKDCEMKRTTLDSPLGKLELSGCEQGLHEIKLLGKGTSAADAVEVPAPAAVLGGPEPLMQATAWLNAYFHQPEAIEEFPVPALHHPVFQQESFTRQVLWKLLKVVKFGEVISYQQLAALAGNPAATAAVKTALSGNPVPILIPCHRVVSSSGAVGGYEGGLAVKEWLLAHEGHRLGKPGLG | soluble |
| MAKVIFQDNFLLMGTNYHEKEANKVMAEIGKKSPYWDKDKDFISDYIKSNFKDIYKYYRVSTKDVEIVREPLNRHDPNAIKVMVNKTFVGYFPADLAKRLTPYVKKSSHYQMEATLTGRGGQYKTLKNDLKTVVTKKKDITYKLRLTILKVDRVSKSKNAGLLESIASWFLNLEHHHHHH | soluble |
| MDAEGNLFMSWRDGGTFGIARINEQQNIVTPLIEADAANRILYANGLTVDRATGMLTAAHESVKEVTFTFDPREAWYPRQRNIKYSQSDLNSIVDADRYKNFVTFCPYDGYLYTRYRDGKIAKIDPNTFEGHIIHQGPSGSQYGQAINPAKPWLLYITLHSNAPTAYRQGISVLDLRDPDGTGGFKRLNAPGGSAFRDGPIEDALFNYPKDIKFDNDGNMFVADYGNHCIRMISADNIVTTVAGQPGVAGYKDGGPVESLFKNPWGVAVNEQGDIYIADWGNARIRKLVIELEHHHHHH | not soluble |
| SLSFTLEEEDITGTWYVKAMVVDKDFPEDRRPRKVSPVKVTALGGGNLEATFTFMREDRCIQKKILMRKTEEPGKFSAYGGRKLIYLQELPGTDDYVFYCKDQRRGGLRYMGKLVGRNPNTNLEALEEFKKLVQHKGLSEEDIFMPLQTGSCVLEH | soluble |
| MAKWGQGDPRWIVAEREDGTNVNNWHWTARDATIWSKGKLRELLVGIAMENEAGRCEISELKQVEGEASCNSRKGKLIFFYEWNIKLAWKGTVKESGAKHKGLIEIPSLSEENEINDTEVNVSKKKGDGEILKDLMRTTGTAKVREALGEYLKALKTEFTTGMILPTKAVATQELTLQRKLNENKLQASPVALGVRIPTVALHLTELFDTTVEQLYSIFTVKELVQKFSKSPAVLEAERGGKFQMFDGNISGEYVELVTNRKIIMKWRCRNWPEALGFFPRTLCNS | not soluble |
| MDIIRLGDTTSHGGTVIEAFGQTDLNGKPMAGVGHQVVCPLCKGTFPITEGSALLDVNGVPVALHGMKTACGASLIASGPLGAAEN | not soluble |
| MGSSHHHHHHSSGLVPRGSHMLDIMSDDGDITAVSSGNRDIAQVVTENNKNYLVLYASQTGTAEGFAKAFSKELVAKFNLNVMCADVENYDFESLNDVPVIVSIFISTYGEGDFPDGAVNFEDFICNAEAGALSNLRYNMFGLGNSTYEFFNGAAKKAEKHLSAAGAIRLGKLGEADDGAGTTDEDYMAWKDSILEVLKDELHLDEQEAKFTSQFQYTVLNEITDSMSLGEPSAHYLPSHQLNRNADGIQLGPFDLSQPYIAPIVKSRELFSSNDRNCIHSEFDLSGSNIKYSTGDHLAVWPSNPLEKVEQFLSIFNLDPETIFDLKPLDPTVKVPFPTPTTIGAAIKHYLEITGPVSRQLFSSLIQFAPNADVKEKLTLLSKDKDQFAVEITSKYFNIADALKYLSDGAKWDTVPMQFLVESVPQMTPRYYSISSSSLSEKQTVHVTSIVENFPNPELPDAPPVVGVTTNLLRNIQLAQNNVNIAETNLPVHYDLNGPRKLFANYKLPVHVRRSNFRLPSNPSTPVIMIGPGTGVAPFRGFIRERVAFLESQKKGGNNVSLGKHILFYGSRNTDDFLYQDEWPEYAKKLDGSFEMVVAHSRLPNTKKVYVQDKLKDYEDQVFEMINNGAFIYVCGDAKGMAKGVSTALVGILSRGKSITTDEATELIKMLKTSGRYQEDVW | soluble |
| MAHHHHHHMNEIVINNLNYNYYNGIQRTRIKALQNVNLCFERGMRILVCGKNGAGKSTLLSIIAGKKLIKENEVLIFNKQAFHDTDISNKIGYVGEWWSEEYAMNISIKDFCFNYEYTKRYKNLLKLFELDENKIISNLSKGERKKVQIMVNIIVRKDIYIFDEATESLDLVSRKLLLE | soluble |
| MGSDKIHHHHHHMSRVNELVGTLFTGGRKPDDLYGRVFVVSAFGGITNLLLEHKKTGEPGVYARFADAESDHGWHEALSRVGDEMRKAHEAVLENAGDVAQADAFVSERIEGARNCLIDLQRLCSYGHFRLAEHMLQIRELLSGLGEAHSAYVTALLLQRAGVNARFVDLSGWRDEGDVTLEERISSALNDVDPATEMPIVTGYAQCAEGLMREFDRGYSEVTFSCLAALTGASEAIIHKEFHLSSADPKLVGEGVAQKLGHTNYDVADQMSNMGMEAIHPKAAKTLRQADVPLRVTNAFEPEDPGTLIDDKPADQPAVEMITGLDIIALELFEQDMVGVKGYDAAILEVLTRHDVRIVSKTSNANTITHYLDTSLTVLKRVEKDLAKIYPNADISARLLSMASAIGRDLKGLSVLTRGLQAIADVGLASLGASQGPRNVDVQFIVEREDLKPVISALHKVLVEGRPAKQEKPIKAAA | not soluble |
| GKNLNWDFDANISFNRNKISGLPGDQFAQGWSKADNVFLQRNGMPIGTIYGFVEDGFYDNIAEVRADPFYAKESEAVCKAMVGEVKYKDFDGVAGITNADRQVIGDTNPDFTFGMTHNFTYKNFSLSFFLQGCVGGDIFNANLLEVTMSGIGNIPQNIYESRWTPENRENAKWPKAYAGYGRTMKLSDRYVEDGSYLRMKNINLGYKFISPFKGIESINLFASVSNVFTISGYSWYDPDVNSFGSDASRRGVDLFSYPSSRTFSFGLQCTF | not soluble |
| MGSDKIHHHHHHMPTLPMPSFLSSYWESSFNLKQHIQEFLQLDAEILETKLEFGQQQMAELGHKDFDWEQATAFYRDKVGEVYLFELGAWHLASHDYIGDTLRLIADHAHGCVLDFGGGIGTHAIGAALCPHVEQVVYCDINPINFDFVKYRAEKLGLSEKIIFCVEIPPQKTFDTIMSFDVLEHLPDPSQQLLEFHQILADEGKMILNWHFFKGFNQEHPFHLDDPQAIDTFFKTIQSNCLEVFHPYHITARCYRKWN | not soluble |
| MISIDPQFIKNFSKKVKQFDKFSLFVHVNPDFDAFGSAFAFKTFLNTFFSEKKAYVMGSYNINADGRELFPFEQTDINDDFVKESLAIIFDTSNQERVLTQKHKLAKETVRIDHHPRTEKFADMEWIDSSFSATAEMIGYLILQMGYKLNDEIASYLYAGIITDTQRFWGPTTTPQTFALTAKLMETGFNRNKVHDAVYLKPLLEHKYFSYVLSKAKITKNGLAYALIKKGAYKHFGVVSPLPMVHALNNIKGVKIWTTVYFNESIKKWIGSIRSRNIPINNFAQMFNGGGHKYAAAFVLDEKNQFMKLVQIMDDFLAKQNENS | not soluble |
| MSLSQNASVGIVMPQKIPFEMPLVLENGKTLPRFDLMIETYGELNAEKNNAVLICHALSGNHHVAGRHSAEDKYTGWWDNMVGPGKPIDTERFFVVGLNNLGGCDGSSGPLSINPETGREYGADFPVVTVKDWVKSQAALADYLGIEQWAAIVGGSLGGMQALQWTISYPERVRHALVIASAPKLSTQNIAFNDVARQAILTDPDFNEGHYRSHNTVPARGLRIARMMGHITYLAEDGLGKKFGRDLRSNGYQYGFGVEFEVESYLRYQGDKFVGRFDANTYLLMTKALDYFDPAADFGDSLTRALQNVKAKFFVASFSTDWRFAPERSHELVKALIAAQKSVQYIEVKSAHGHDAFLMEDEAYMRAVAAYMNNVYKECQQEGHHHHHH | soluble |
| MKKEHQKTLTFEIITPVVMAGTYKDEPELRIPSIKGMLRWWFRFFYASHNQSIDKLREHENEIFGSTEKACQFYMHLKYSQKLTDAYLAMNKRYGRYNNIKRKALEKNDTFRIDFIYSPFFTYKKELNTTLQLLSFLGGIGARWRRGFGSIQLKNGEDYKSFDKLKEKIEKVLKGKGEYHHDGFININNVDIYLVKPKRDNFWIDSLGAMNNLRKKVYKEFKSETNIKAIACKPKGGSRAVSPLIIQIKKFSEGKFYGILIVYNEWDKYEEFKNFINNNSELSFEQLLKSKPRKI | soluble |
| GSAEEWYFGKITRRESERLLLNPENPRGTFLVRESETTKGAYCLSVSDFDNAKGLNVKHYKIRKLDSGGFYITSRTQFSSLQQLVAYYSKHADGLCHRLTNVCPTSKEFIVTD | soluble |
| MAFELSPSDLEPLLQGACFFGSGGGGTMISARHLAANFRKGDYYPTDKVRVVDVDEATDGDCVMVAYMGAPDAINQVQWPNGPVEAALAARQRLESQGRKLAYVVAPESGALGFVVASLVAAKLGLAVVDADGAGRAVPSLPMLTYAAAGVPPTPAFLAGESGLCVELGVRMPPPDGQRREDISTVVEQMLRPILTNPQFGQFGGLAMWMMSPAQLGGALPVRGTLSRALKLGRALQDGKVKTAEAMLDFLRRELDIKGKLLFGPATLASSEVSTAGGFDLGKVVLEDGERRCTVLYQNESLLAWDSALSHPLATAPDAISYFVEGEGQHVFSNGDLSGNDHGLDPSVRGRKAAVIALPAAAPLSEGLILQSFADELAQLGYLGPYAPVDAGREGARLEHHHHHH | soluble |
| MKTEKDKMLAGEMYIADDEELVADRVEAKRLTRLYNEAVETGDERRFTLLNQLLGSSADGKAQINPDFRCDYGYNIHVGKSFFANFNCVILDVCEVRIGDHCMFAPGVHIYTATHPLHPVERNSGKEYGKPVKIGNNVWVGGGAIINPGVSIGDNAVIASGAVVTKDVPNNVVVGGNPAKVIKTIEE | not soluble |
| MQERVFHVASPKAKLYSEADQAIRERLKDFPKALRAYEMLVQDPEARSGWNMANYLTMRKLGYNDHGRVHALLTGAASVAILALLSEAGVRLDTVESGAGELEDAYVVVLLSTMLHDLGNQVHRFGHEAFGVVLALPILNRILDKLYPDPEQRTAIRALILHGIYSHDLSPEPLTIEAGITAVADGTDITKGRGRKAFQLGSIDIHSISALAVDEVRILKGEKVPVEIQVTMNNSAGIFQVEETLTKKVLKSPLRPYVTVVAMTDGEGGQDQRIVHRVRLHETEDRFVLD | soluble |
| MGSDKIHHHHHHMQGVPEHFTDERDYAQFRHLPTLPGIELYHAHICRYAFEPHTHEAFGIGTIDDGAEQFRYRGAKHIAPVDSLVLMNPDELHTGESATEDGWRYRMIYIPPDVLESVSGEKGWWFTDVVRHDPATARQLAMTLAALWQTTDPLASESLLLSLIALFRPHAHIAQRQVVEPFHRFDVVKAYLRENFAHTITLKELAALVSLSPYHFLRQFKTQFHVTPHQMLMAIRLYEAKQMLTRGMAAAHVALAVGLTDQAHLTRTFAQRYGVTPIRYQKQVYPTLR | not soluble |
| MGSDKIHHHHHHMCTRFVYNGKETIVGFNFDIDLSEWEHTVIAEKDRFFIGIKMSDNKYHSFHGINRNGNVGTLLYVHGNDNAQFCSNESCYTIADLTENFIKGNLSFDDSLEIVKKKKITYAPDTTMQAMFSDRNGRVLIIEPGIGYRLEKEKYSLITNYSILKPELTNPYVLSGDNRYEKAKDLLQGYGENFSISNAFDVLRSVRQEGLWATRVSFIYSVAKNKVYYVLNNDFKNIAEYQF | not soluble |
